# Biological target: the molecule itself
# Test: AUC
protein,measurement,value
"human progesterone receptor B-isoform (PR-B), residues 1-933 (natural protein, UniProt P06401 1-933, looked up) MTELKAKGPRAPHVAGGPPSPEVGSPLLCRPAAGPFPGSQTSDTLPEVSAIPISLDGLLFPRPCQGQDPSDEKTQDQQSLSDVEGAYSRAEATRGAGGSSSSPPEKDSGLLDSVLDTLLAPSGPGQSQPSPPACEVTSSWCLFGPELPEDPPAAPATQRVLSPLMSRSGCKVGDSSGTAAAHKVLPRGLSPARQLLLPASESPHWSGAPVKPSPQAAAVEVEEEDGSESEESAGPLLKGKPRALGGAAAGGGAAAVPPGAAAGGVALVPKEDSRFSAPRVALVEQDAPMAPGRSPLATTVMDFIHVPILPLNHALLAARTRQLLEDESYDGGAGAASAFAPPRSSPCASSTPVAVGDFPDCAYPPDAEPKDDAYPLYSDFQPPALKIKEEEEGAEASARSPRSYLVAGANPAAFPDFPLGPPPPLPPRATPSRPGEAAVTAAPASASVSSASSSGSTLECILYKAEGAPPQQGPFAPPPCKAPGASGCLLPRDGLPSTSASAAAAGAAPALYPALGLNGLPQLGYQAAVLKEGLPQVYPPYLNYLRPDSEASQSPQYSFESLPQKICLICGDEASGCHYGVLTCGSCKVFFKRAMEGQHNYLCAGRNDCIVDKIRRKNCPACRLRKCCQAGMVLGGRKFKKFNKVRVVRALDAVALPQPVGVPNESQALSQRFTFSPGQDIQLIPPLINLLMSIEPDVIYAGHDNTKPDTSSSLLTSLNQLGERQLLSVVKWSKSLPGFRNLHIDDQITLIQYSWMSLMVFGLGWRSYKHVSGQMLYFAPDLILNEQRMKESSFYSLCLTMWQIPQEFVKLQVSQEEFLCMKVLLLLNTIPLEGLRSQTQFEEMRSSYIRELIKAIGLRQKGVVSSSQRFYQLTKLLDNLHDLVKQLHLYCLNTFIQSRALSVEFPEMMSEVIAAQLPKILAGMVKPLLFHKK",stoichiometry N,2

# Reference: PMC2808462 (Biochemistry, 2010)
